The target of the data set is CsWRKY57like (WRKY domain) (Camellia sinensis, UniProt A0A4S4EXI7 145-222). The data set is described as follows: EMSA; excess unlabeled probe abolishes binding; Biotin-labeled probes, 6% native PAGE; buffer, salt, pH and temperature not stated (cited refs 48, 49). Particulars: protein: recombinant; tags: GST (pGEX-4T); label: biotin. For orientation: A gel shift assay detects complexes by their altered migration in electrophoresis.
CsWRKY57like (WRKY domain), sequence (A0A4S4EXI7 entry or part of it): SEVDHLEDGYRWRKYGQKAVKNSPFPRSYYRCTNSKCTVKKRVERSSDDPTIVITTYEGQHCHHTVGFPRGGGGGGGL

B1: CsDFR promoter W-box probe (dsDNA)
DNA 1: GCCCAAGCTCATATAGTCAAAAAAGTCAAAAAGCCAAAAAGTCAACCCACTTCCC
DNA 2: GGGAAGTGGGTTGACTTTTTGGCTTTTTGACTTTTTTGACTATATGAGCTTGGGC
Turning to B1, the binding result is listed as “binds”.

B2: CCoAOMT promoter W-box probe (dsDNA)
DNA 1: TTTACTTAAAATATGGATTTTGACTTGTGATATAAAAAATTATAAATATTTT
DNA 2: AAAATATTTATAATTTTTTATATCACAAGTCAAAATCCATATTTTAAGTAAA
B2: the binding result is recorded as “binds”.
